Results published in paper PMC10540216, “Activity Guided Azide-methyllysine Photo-trapping for Substrate Profiling of Lysine Demethylases” (Journal of the American Chemical Society, 2023).

B1: YTDC2_HUMAN (protein, UniProt Q9H6S0 1-1430, looked up)
3'-5' RNA helicase YTHDC2: MSRPSSVSPRQPAPGGGGGGGPSPCGPGGGGRAKGLKDIRIDEEVKIAVNIALERFRYGDQREMEFPSSLTSTERAFIHRLSQSLGLVSKSKGKGANRYLTVKKKDGSETAHAMMTCNLTHNTKHAVRSLIQRFPVTNKERTELLPKTERGNVFAVEAENREMSKTSGRLNNGIPQIPVKRGESEFDSFRQSLPVFEKQEEIVKIIKENKVVLIVGETGSGKTTQIPQFLLDDCFKNGIPCRIFCTQPRRLAAIAVAERVAAERRERIGQTIGYQIRLESRVSPKTLLTFCTNGVLLRTLMAGDSTLSTVTHVIVDEVHERDRFSDFLLTKLRDLLQKHPTLKLILSSAALDVNLFIRYFGSCPVIYIQGRPFEVKEMFLEDILRTTGYTNKEMLKYKKEKQQEEKQQTTLTEWYSAQENSFKPESQRQRTVLNVTDEYDLLDDGGDAVFSQLTEKDVNCLEPWLIKEMDACLSDIWLHKDIDAFAQVFHLILTENVSVDYRHSETSATALMVAAGRGFASQVEQLISMGANVHSKASNGWMALDWAKHFGQTEIVDLLESYSATLEFGNLDESSLVQTNGSDLSAEDRELLKAYHHSFDDEKVDLDLIMHLLYNICHSCDAGAVLIFLPGYDEIVGLRDRILFDDKRFADSTHRYQVFMLHSNMQTSDQKKVLKNPPAGVRKIILSTNIAETSITVNDVVFVIDSGKVKEKSFDALNFVTMLKMVWISKASAIQRKGRAGRCRPGICFRLFSRLRFQNMLEFQTPELLRMPLQELCLHTKLLAPVNCPIADFLMKAPEPPPALIVRNAVQMLKTIDAMDTWEDLTELGYHLADLPVEPHLGKMVLCAVVLKCLDPILTIACTLAYRDPFVLPTQASQKRAAMLCRKRFTAGAFSDHMALLRAFQAWQKARSDGWERAFCEKNFLSQATMEIIIGMRTQLLGQLRASGFVRARGGGDIRDVNTNSENWAVVKAALVAGMYPNLVHVDRENLVLTGPKEKKVRFHPASVLSQPQYKKIPPANGQAAAIKALPTDWLIYDEMTRAHRIANIRCCSAVTPVTILVFCGPARLASNALQEPSSFRVDGIPNDSSDSEMEDKTTANLAALKLDEWLHFTLEPEAASLLLQLRQKWHSLFLRRMRAPSKPWSQVDEATIRAIIAVLSTEEQSAGLQQPSGIGQRPRPMSSEELPLASSWRSNNSRKSSADTEFSDECTTAERVLMKSPSPALHPPQKYKDRGILHPKRGTEDRSDQSSLKSTDSSSYPSPCASPSPPSSGKGSKSPSPRPNMPVRYFIMKSSNLRNLEISQQKGIWSTTPSNERKLNRAFWESSIVYLVFSVQGSGHFQGFSRMSSEIGREKSQDWGSAGLGGVFKVEWIRKESLPFQFAHHLLNPWNDNKKVQISRDGQELEPLVGEQLLQLWERLPLGEKNTTD
B2: SIN3A_HUMAN (protein, UniProt Q96ST3 1-1273, looked up)
Paired amphipathic helix …: MKRRLDDQESPVYAAQQRRIPGSTEAFPHQHRVLAPAPPVYEAVSETMQSATGIQYSVTPSYQVSAMPQSSGSHGPAIAAVHSSHHHPTAVQPHGGQVVQSHAHPAPPVAPVQGQQQFQRLKVEDALSYLDQVKLQFGSQPQVYNDFLDIMKEFKSQSIDTPGVISRVSQLFKGHPDLIMGFNTFLPPGYKIEVQTNDMVNVTTPGQVHQIPTHGIQPQPQPPPQHPSQPSAQSAPAPAQPAPQPPPAKVSKPSQLQAHTPASQQTPPLPPYASPRSPPVQPHTPVTISLGTAPSLQNNQPVEFNHAINYVNKIKNRFQGQPDIYKAFLEILHTYQKEQRNAKEAGGNYTPALTEQEVYAQVARLFKNQEDLLSEFGQFLPDANSSVLLSKTTAEKVDSVRNDHGGTVKKPQLNNKPQRPSQNGCQIRRHPTGTTPPVKKKPKLLNLKDSSMADASKHGGGTESLFFDKVRKALRSAEAYENFLRCLVIFNQEVISRAELVQLVSPFLGKFPELFNWFKNFLGYKESVHLETYPKERATEGIAMEIDYASCKRLGSSYRALPKSYQQPKCTGRTPLCKEVLNDTWVSFPSWSEDSTFVSSKKTQYEEHIYRCEDERFELDVVLETNLATIRVLEAIQKKLSRLSAEEQAKFRLDNTLGGTSEVIHRKALQRIYADKAADIIDGLRKNPSIAVPIVLKRLKMKEEEWREAQRGFNKVWREQNEKYYLKSLDHQGINFKQNDTKVLRSKSLLNEIESIYDERQEQATEENAGVPVGPHLSLAYEDKQILEDAAALIIHHVKRQTGIQKEDKYKIKQIMHHFIPDLLFAQRGDLSDVEEEEEEEMDVDEATGAVKKHNGVGGSPPKSKLLFSNTAAQKLRGMDEVYNLFYVNNNWYIFMRLHQILCLRLLRICSQAERQIEEENREREWEREVLGIKRDKSDSPAIQLRLKEPMDVDVEDYYPAFLDMVRSLLDGNIDSSQYEDSLREMFTIHAYIAFTMDKLIQSIVRQLQHIVSDEICVQVTDLYLAENNNGATGGQLNTQNSRSLLESTYQRKAEQLMSDENCFKLMFIQSQGQVQLTIELLDTEEENSDDPVEAERWSDYVERYMNSDTTSPELREHLAQKPVFLPRNLRRIRKCQRGREQQEKEGKEGNSKKTMENVDSLDKLECRFKLNSYKMVYVIKSEDYMYRRTALLRAHQSHERVSKRLHQRFQAWVDKWTKEHVPREMAAETSKWLMGEGLEGLVPCTTTCDTETLHFVSINKYRVKYGTVFKAP
B3: PREP_HUMAN (protein, UniProt Q5JRX3 29-1037, looked up)
Presequence protease, …: NSNRACERALQYKLGDKIHGFTVNQVTSVPELFLTAVKLTHDDTGARYLHLAREDTNNLFSVQFRTTPMDSTGVPHILEHTVLCGSQKYPCRDPFFKMLNRSLSTFMNAFTASDYTLYPFSTQNPKDFQNLLSVYLDATFFPCLRELDFWQEGWRLEHENPSDPQTPLVFKGVVFNEMKGAFTDNERIFSQHLQNRLLPDHTYSVVSGGDPLCIPELTWEQLKQFHATHYHPSNARFFTYGNFPLEQHLKQIHEEALSKFQKIEPSTVVPAQTPWDKPREFQITCGPDSFATDPSKQTTISVSFLLPDITDTFEAFTLSLLSSLLTSGPNSPFYKALIESGLGTDFSPDVGYNGYTREAYFSVGLQGIAEKDIETVRSLIDRTIDEVVEKGFEDDRIEALLHKIEIQMKHQSTSFGLMLTSYIASCWNHDGDPVELLKLGNQLAKFRQCLQENPKFLQEKVKQYFKNNQHKLTLSMRPDDKYHEKQAQVEATKLKQKVEALSPGDRQQIYEKGLELRSQQSKPQDASCLPALKVSDIEPTIPVTELDVVLTAGDIPVQYCAQPTNGMVYFRAFSSLNTLPEELRPYVPLFCSVLTKLGCGLLDYREQAQQIELKTGGMSASPHVLPDDSHMDTYEQGVLFSSLCLDRNLPDMMQLWSEIFNNPCFEEEEHFKVLVKMTAQELANGIPDSGHLYASIRAGRTLTPAGDLQETFSGMDQVRLMKRIAEMTDIKPILRKLPRIKKHLLNGDNMRCSVNATPQQMPQTEKAVEDFLRSIGRSKKERRPVRPHTVEKPVPSSSGGDAHVPHGSQVIRKLVMEPTFKPWQMKTHFLMPFPVNYVGECIRTVPYTDPDHASLKILARLMTAKFLHTEIREKGGAYGGGAKLSHNGIFTLYSYRDPNTIETLQSFGKAVDWAKSGKFTQQDIDEAKLSVFSTVDAPVAPSDKGMDHFLYGLSDEMKQAHREQLFAVSHDKLLAVSDRYLGTGKSTHGLAILGPENPKIAKDPSWIIQ
B4: SAFB1_HUMAN (protein, UniProt Q15424 2-915, looked up)
Scaffold attachment factor B1: AETLSGLGDSGAAGAAALSSASSETGTRRLSDLRVIDLRAELRKRNVDSSGNKSVLMERLKKAIEDEGGNPDEIEITSEGNKKTSKRSSKGRKPEEEGVEDNGLEENSGDGQEDVETSLENLQDIDIMDISVLDEAEIDNGSVADCVEDDDADNLQESLSDSRELVEGEMKELPEQLQEHAIEDKETINNLDTSSSDFTILQEIEEPSLEPENEKILDILGETCKSEPVKEESSELEQPFAQDTSSVGPDRKLAEEEDLFDSAHPEEGDLDLASESTAHAQSSKADSLLAVVKREPAEQPGDGERTDCEPVGLEPAVEQSSAASELAEASSEELAEAPTEAPSPEARDSKEDGRKFDFDACNEVPPAPKESSTSEGADQKMSSPEDDSDTKRLSKEEKGRSSCGRNFWVSGLSSTTRATDLKNLFSKYGKVVGAKVVTNARSPGARCYGFVTMSTAEEATKCINHLHKTELHGKMISVEKAKNEPVGKKTSDKRDSDGKKEKSSNSDRSTNLKRDDKCDRKDDAKKGDDGSGEKSKDQDDQKPGPSERSRATKSGSRGTERTVVMDKSKGVPVISVKTSGSKERASKSQDRKSASREKRSVVSFDKVKEPRKSRDSESHSRVRERSEREQRMQAQWEREERERLEIARERLAFQRQRLERERMERERLERERMHVEHERRREQERIHREREELRRQQELRYEQERRPAVRRPYDLDRRDDAYWPEAKRAALDERYHSDFNRQDRFHDFDHRDRGRYPDHSVDRREGSRSMMGEREGQHYPERHGGPERHGRDSRDGWGGYGSDKRMSEGRGLPPPPRRDWGDHGRREDDRSWQGTADGGMMDRDHKRWQGGERSMSGHSGPGHMMNRGGMSGRGSFAPGGASRGHPIPHGGMQGGFGGQSRGSRPSDARFTRRY
B5: NCKP1_HUMAN (protein, UniProt Q9Y2A7 2-1128, looked up)
Nck-associated protein 1: SRSVLQPSQQKLAEKLTILNDRGVGMLTRLYNIKKACGDPKAKPSYLIDKNLESAVKFIVRKFPAVETRNNNQQLAQLQKEKSEILKNLALYYFTFVDVMEFKDHVCELLNTIDVCQVFFDITVNFDLTKNYLDLIITYTTLMILLSRIEERKAIIGLYNYAHEMTHGASDREYPRLGQMIVDYENPLKKMMEEFVPHSKSLSDALISLQMVYPRRNLSADQWRNAQLLSLISAPSTMLNPAQSDTMPCEYLSLDAMEKWIIFGFILCHGILNTDATALNLWKLALQSSSCLSLFRDEVFHIHKAAEDLFVNIRGYNKRINDIRECKEAAVSHAGSMHRERRKFLRSALKELATVLSDQPGLLGPKALFVFMALSFARDEIIWLLRHADNMPKKSADDFIDKHIAELIFYMEELRAHVRKYGPVMQRYYVQYLSGFDAVVLNELVQNLSVCPEDESIIMSSFVNTMTSLSVKQVEDGEVFDFRGMRLDWFRLQAYTSVSKASLGLADHRELGKMMNTIIFHTKMVDSLVEMLVETSDLSIFCFYSRAFEKMFQQCLELPSQSRYSIAFPLLCTHFMSCTHELCPEERHHIGDRSLSLCNMFLDEMAKQARNLITDICTEQCTLSDQLLPKHCAKTISQAVNKKSKKQTGKKGEPEREKPGVESMRKNRLVVTNLDKLHTALSELCFSINYVPNMVVWEHTFTPREYLTSHLEIRFTKSIVGMTMYNQATQEIAKPSELLTSVRAYMTVLQSIENYVQIDITRVFNNVLLQQTQHLDSHGEPTITSLYTNWYLETLLRQVSNGHIAYFPAMKAFVNLPTENELTFNAEEYSDISEMRSLSELLGPYGMKFLSESLMWHISSQVAELKKLVVENVDVLTQMRTSFDKPDQMAALFKRLSSVDSVLKRMTIIGVILSFRSLAQEALRDVLSYHIPFLVSSIEDFKDHIPRETDMKVAMNVYELSSAAGLPCEIDPALVVALSSQKSENISPEEEYKIACLLMVFVAVSLPTLASNVMSQYSPAIEGHCNNIHCLAKAINQIAAALFTIHKGSIEDRLKEFLALASSSLLKIGQETDKTTTRNRESVYLLLDMIVQESPFLTMDLLESCFPYVLLRNAYHAVYKQSVTSSA
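Note: lysates from HEK293T cells pretreated with a KDM4 inhibitor to raise proteome methylation, affinity-purified after ±UV, gel-resolved, trypsin-digested, with exclusive unique peptides per protein averaged per condition.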

Each molecule was assayed on KDM4A-I71AzF (assay: CASI: photo-crosslinking with HEK293T cell extracts, StrepTactin enrichment and LC-MS/MS proteomics). Settings: sheet "Final results but with 0.01".
Type: binding, human
B1 was tested, and the “Fold change (+UV/-UV)” value was 0.3333. For B2, the “Fold change (+UV/-UV)” value was 1.333. In the case of B3, the “Fold change (+UV/-UV)” value is reported as 0.2. B4 was tested, and the “Fold change (+UV/-UV)” value was 0.5. B5 was tested, and the “Fold change (+UV/-UV)” value was 0.6.
